From patent publication US20100119511A1 (Biogen, published 2010) come the findings set out here.

T1: D1 Her2-Fc
T1 construct: also called MR066; ErbB2-Fc Domain 1; not shown: huIgG1-Fc part
T1 chain: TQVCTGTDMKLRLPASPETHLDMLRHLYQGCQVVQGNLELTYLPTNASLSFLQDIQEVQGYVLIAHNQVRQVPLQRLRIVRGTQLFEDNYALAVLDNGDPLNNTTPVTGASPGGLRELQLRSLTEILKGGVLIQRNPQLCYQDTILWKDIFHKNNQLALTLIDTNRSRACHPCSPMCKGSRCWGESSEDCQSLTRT

T2: D1-D2 Her2-Fc
T2 construct: also called MR067; ErbB2-Fc Domains 1-2; not shown: huIgG1-Fc part
T2 chain: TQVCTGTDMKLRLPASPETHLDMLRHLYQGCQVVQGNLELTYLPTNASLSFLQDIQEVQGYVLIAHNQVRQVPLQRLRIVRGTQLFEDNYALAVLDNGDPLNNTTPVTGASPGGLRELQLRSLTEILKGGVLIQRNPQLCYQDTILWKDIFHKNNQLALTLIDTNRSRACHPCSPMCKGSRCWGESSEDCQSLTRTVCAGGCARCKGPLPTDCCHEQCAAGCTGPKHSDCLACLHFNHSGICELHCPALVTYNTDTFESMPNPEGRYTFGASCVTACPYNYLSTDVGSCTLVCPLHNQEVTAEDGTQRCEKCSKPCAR

B1: BIIB65C10 Fab (Fab, V domains shown)
VH: EVQLLESGGGLVQPGGSLRLSCAASGFTFSYYPMMWVRQAPGKGLEWVSSIWPSGGFTKYADSVKGRFTISRDNSKNTLYLQMNSLRAEDTATYYCARVSSSSWYGYLYWGQGTLVTVSS
VL: not shown
notes: Soluble human Fab from a phagemid Fab library
B2: BIIB66C01 Fab (Fab, V domains shown)
VH: EVQLLESGGGLVQPGGSLRLSCAASGFTFSWYSMSWVRQAPGKGLEWVSSISSSGGPTHYADSVKGRFTISRDNSKNTLYLQMNSLRAEDTAVYYCARDSSYSGTSWGQGTLVTVSS
VL: QYELTQPPSVSGTPGQRVTISCSGSSSNIGSEYVYWFQQLPGTAPRLLIYRNDQRPSGVPDRFSGSKSGTSASLAISGLRSEDETDYYCTTWDDSLSGPVFGGGTKLTVL
notes: as for B1
B3: BIIB66A12 Fab (Fab, V domains shown)
VH: EVQLLESGGGLVQPGGSLRLSCAASGFTFSMYSMQWVRQAPGKGLEWVSVIGSSGGQTGYADSVKGRFTISRDNSKNTLYLQMNSLRAEDTAVYYCARVRDYYGSGSYYLDPWGQGTLVTVSS
VL: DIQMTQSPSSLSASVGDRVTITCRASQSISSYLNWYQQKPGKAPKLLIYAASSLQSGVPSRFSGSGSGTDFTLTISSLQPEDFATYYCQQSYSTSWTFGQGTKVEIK
notes: as for B1
B4: BIIB65H09 Fab (Fab, V domains shown)
VH: EVQLLESGGGLVQPGGSLRLSCAASGFTFSWYSMWWVRQAPGKGLEWVSSIVSSGGQTRYADSVKGRFTISRDNSKNTLYLQMNSLRAEDTAVYYCARVKGYYYYIDVWGKGTTVTVSS
VL: DIQMTQSPGTLSLSPGERATLSCRASQSVDSSYLSWYQQKPGQAPRLLIYGASTRATGIPARFSGSGSGTDFTLTVSRLEPEDFAVYYCQQHGYSSRTFGQGTKVEIK
notes: as for B1
B5: BIIB71F10 Fab (Fab, V domains shown)
VH: EVQLLESGGGLVQPGGSLRLSCAASGFTFSSYGMVWVRQAPGKGLEWVSSISSSGGLTWYADSVKGRFTISRDNSKNTLYLQMNSLRAEDTAVYYCASPPGIAVARDYWGQGTLVTVSS
VL: DIQMTQSPSSLSASVGDRVTITCRASQGISNYLAWYQQKPGKVPKLLIYAASTLQSGVPSRFSGSGSGTDFTLTISSLQPEDVATYYCQKYNSALLTFGGGTKVEIK
notes: Soluble human Fab; also called Fab 71F10
B6: BIIB65B03 Fab (Fab, V domains shown)
VH: EVQLLESGGGLVQPGGSLRLSCAASGFTFSWYRMNWVRQAPGKGLEWVSSIYSSGGPTNYADSVKGRFTISRDNSQNTLYLQMNSLRAEDTAVYYCTREKPDYYDSSGYLDYWGQGTLVTVSS
VL: DIQMTQSPGTLSLSPGERSTLSCRASQSVSSSYLAWYQQKPGQAPRLLIYGASSRATGIPDRFSGSGSGTDFTLTISRLEPEDFGVYYCHQYGRPPVFGPGTKVDIK
notes: as for B1

The first assay concerns the target T1, D1 Her2-Fc. Nature of the assay: ELISA, HER2 domain-Fc captured on anti-huFc, detection HRP-anti-fab. How it is done: (§1) Nunc Maxisorp ELISA plates were coated with 5 ug/ml rabbit pAbs anti-human Fc gamma in PBS overnight at 4 degrees. Plates were washed one time with PBST (PBS, 0.05% tween 20) and blocked with 1% BSA in PBS for one hour at room temperature. Plates were washed one time with PBST and incubated with 1 ug/ml HER2-Fc fusion protein for one hour. Plates were washed three times with PBST and dilutions of Fab (four 5-fold serial dilutions, starting at 1 ug/ml) in block were added and incubated for ninety minutes. Plates were washed three times with PBST and incubated with 1:2,000 HRP-labelled goat anti-human kappa (Southern Biotech cat#2060-05) and HRP-labelled goat anti-human lambda (Southern Biotech cat#2070-05) in block for one hour at room temperature. Plates were washed three times with PBST, developed with TMB solution for 5 minutes, and stopped with equal volume 1 NH₂SO₄. Absorbance values were read at 450 nm.
On the technique in general: ELISA stands for enzyme-linked immunosorbent assay.
For the molecule B1, the binding result is “no binding (tested: 1 ug/ml (from paragraph 380, not on the sheet))”.
Still for that read-out and setting: with B2 the entry was “no binding (tested: 1 ug/ml (from paragraph 380, not on the sheet))”.
As to B3, the binding result is reported as “no binding (tested: 1 ug/ml (from paragraph 380, not on the sheet))”.
On the same count and under the same terms, the entry for B4 is “no binding (tested: 1 ug/ml (from paragraph 380, not on the sheet))”; for B5 it is “no binding (tested: 1 ug/ml (from paragraph 380, not on the sheet))”; for B6 it is “no binding (tested: 1 ug/ml (from paragraph 380, not on the sheet))”.

Another assay deals with T2, D1-D2 Her2-Fc. The description is as above. How it is done: as §1
On to B2, for which the binding result was “no binding (tested: 1 ug/ml (from paragraph 380, not on the sheet))”.
The same measure, in the same setting: the entry for B3 is “no binding (tested: 1 ug/ml (from paragraph 380, not on the sheet))”; for B4 it is “no binding (tested: 1 ug/ml (from paragraph 380, not on the sheet))”; for B6 it is “no binding (tested: 1 ug/ml (from paragraph 380, not on the sheet))”.
